B1: Human His-Gαi3 WT [human] / Fluorescein-labelled GIV peptide (residues 1,671–1,701) [modified: 5,6-carboxyfluorescein coupled to the resin-bound peptide after chain elongation; 5,6-carboxyfluorescein coupled to the resin-bound … (parent)
chain 1: MGCTLSAEDKAAVERSKMIDRNLREDGEKAAKEVKLLLLGAGESGKSTIVKQMKIIHEDGYSEDECKQYKVVVYSNTIQSIIAIIRAMGRLKIDFGEAARADDARQLFVLAGSAEEGVMTPELAGVIKRLWRDGGVQACFSRSREYQLNDSASYYLNDLDRISQSNYIPTQQDVLRTRVKTTGIVETHFTFKDLYFKMFDVGGQRSERKKWIHCFEGVTAIIFCVALSDYDLVLAEDEEMNRMHESMKLFDSICNNKWFTETSIILFLNKKDLFEEKIKRSPLTICYPEYTGSNTYEEAAAYIQCQFEDLNRRKDTKEIYTHFTCATDTKNVQFVFDAVTDVIIKNNLKECGLY
chain 2: KTGSPGSEVVTLQQFLEESNKLTSVQIKSSS
B2: Human His-Gαi3 WT [human] / Fluorescein-labelled DAPLE peptide (residues 1,662–1,695) [modified: 5,6-carboxyfluorescein coupled to the resin-bound peptide after chain elongation; 5,6-carboxyfluorescein coupled to the … (parent)
chain 1: B1 chain 1
chain 2: SASPSSEMVTLEEFLEESNRSSPTHDTPSCRDDL
B3: Human His-Gαi3 WT [human] / Fluorescein-labelled RGS12 GoLoco peptide (residues 1,185–1,221) [modified: 5,6-carboxyfluorescein coupled to the resin-bound peptide after chain elongation; 5,6-carboxyfluorescein coupled to the … (parent)
chain 1: B1 chain 1
chain 2: DEAEEFFELISKAQSNRADDQRGLLRKEDLVLPEFLR

Variants of: B1
Assay: fluorescence polarisation
Details: with Fluorescein-labelled GIV peptide (residues 1,671–1,701) [modified: 5,6-carboxyfluorescein coupled to the resin-bound peptide after chain elongation

Variant | ratio to parent
chain 1 W258F | 3.59

Variants of: B2
Assay: fluorescence polarisation
Details: with Fluorescein-labelled DAPLE peptide (residues 1,662–1,695) [modified: 5,6-carboxyfluorescein coupled to the resin-bound peptide after chain elongation

Variant | ratio to parent
chain 1 F259A | 2

Variants of: B3
Assay: fluorescence polarisation
Details: with Fluorescein-labelled RGS12 GoLoco peptide (residues 1,185–1,221) [modified: 5,6-carboxyfluorescein coupled to the resin-bound peptide after chain elongation

Variant | Kd | ratio to parent
chain 1 G42R | 98 nM | 1.81
chain 1 K35A | – | 2.79
chain 1 S252D | – | 6.17
chain 1 K257A | – | 1.58
chain 1 L249H | – | 4.89
chain 1 S252A | – | 0.644
chain 1 W211A | – | 1.11
chain 1 L249V | – | 1.54
chain 1 I184A | – | 1.53
chain 1 F215A | – | 10.1
chain 1 F259A | – | 3.43
chain 1 L37A | – | 1.46
chain 1 N256E | – | 5.78
chain 1 L36A | – | 2.18
chain 1 L39A | – | 3.23
chain 1 V218A | – | 1.92
chain 1 W258F | – | 1.15
chain 1 N256A | – | 1.42

Source: PMC5454376, “Molecular mechanism of Gαi activation by non-GPCR proteins with a Gα-Binding and Activating motif” (Nature Communications, 2017)
